The results in this text go back to patent publication US7662583B2, “Bioreactor containing cells expressing glycosyltransferase nucleic acids isolatable from Arabidopsis” (The University of York, priority 2003, dated 2010).

Series [1] is described as follows: UGT enzyme reaction with quercetin (recombinant UGTs, HPLC). It is filed as biochemical, Arabidopsis. Conditions: for Specific activity (nkat/mg protein) 3-O-glc: quercetin glucosylated at 3-OH; for Specific activity (nkat/mg protein) 3-O-glc / Specific activity (nkat/mg protein) 3′-O-glc / Specific activity (nkat/mg protein) 4′-O-glc / Specific activity (nkat/mg protein) 7-O-glc: 0.5 mM quercetin, 5 mM UDP-glucose, 30° C.; for Specific activity (nkat/mg protein) 3′-O-glc: quercetin glucosylated at 3′-OH; for Specific activity (nkat/mg protein) 4′-O-glc: quercetin glucosylated at 4′-OH; for Specific activity (nkat/mg protein) 7-O-glc: quercetin glucosylated at 7-OH; for di-O-glucoside formation from quercetin: low substrate concentration, time parameter varied. A digest of the protocol:
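Recombinant Arabidopsis UGTs (2 μg) incubated with 0.5 mM quercetin and 5 mM UDP-glucose in 100 mM Tris-HCl pH 7.0 at 30 °C for 1 h. Quercetin glucosides separated from aglycone by reverse-phase C18 HPLC (acetonitrile gradient, 0.1% TFA), detected at 370 nm.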

Series [2] is described as follows: Whole-cell biocatalyst assay, E. coli expressing UGT in culture medium. It is filed as cell-based. Here is the method: FIG. 14 Whole-cell biocatalyst assay using UGT71C1. E. coli cells expressing recombinant were used in the biocatalyst assay. After incubation with 0.1 mM quercetin and 0.1 mM IPTG, cells were collected by centrifugation, extracted with 80% methanol and both the cell extracts (pellet) and culture medium (supernatant) were analysed using HPLC. (A) Changes in the combined amounts of aglycone/glucoside over a time-course of 0-48 h. (B) Changes in the level of different glucosides and aglycone in the culture medium over the same time-course.
Using the foundation established in the preceding example, we went on to investigate the potential of E. coli expressing plant UGTs as whole-cell biocatalysts to synthesise glucosides of quercetin. In the first instance, we used E. coli grown in 75 ml of standard culture medium. […] Table 2 describes results in which 7 different UGTs are expressed in E. coli and the identity and quantity of different glucosides recovered in the medium were analysed by HPLC. […] There was considerable variation in the level of different glucosides synthesised by the cells, although even under these non-optimised conditions, each of the four monoglucosides and two di-O-glucosides could be formed.

[3] abbreviates: E. coli, 2x YT medium, 0.1 mM IPTG, 0.1 mM quercetin, 24 h.

B1: UGT71D1: Arabidopsis recombinant glycosyltransferase (protein, UniProt O82383 1-467, looked up)
UDP-glycosyltransferase 71D1: MRNVELIFIPTPTVGHLVPFLEFARRLIEQDDRIRITILLMKLQGQSHLDTYVKSIASSQPFVRFIDVPELEEKPTLGSTQSVEAYVYDVIERNIPLVRNIVMDILTSLALDGVKVKGLVVDFFCLPMIDVAKDISLPFYVFLTTNSGFLAMMQYLADRHSRDTSVFVRNSEEMLSIPGFVNPVPANVLPSALFVEDGYDAYVKLAILFTKANGILVNSSFDIEPYSVNHFLQEQNYPSVYAVGPIFDLKAQPHPEQDLTRRDELMKWLDDQPEASVVFLCFGSMARLRGSLVKEIAHGLELCQYRFLWSLRKEEVTKDDLPEGFLDRVDGRGMICGWSPQVEILAHKAVGGFVSHCGWNSIVESLWFGVPIVTWPMYAEQQLNAFLMVKELKLAVELKLDYRVHSDEIVNANEIETAIRYVMDTDNNVVRKRVMDISQMIQRATKNGGSSFAAIEKFIYDVIGIKP
Regarding B1, in series [1], the “Specific activity (nkat/mg protein) 3-O-glc” value is 4.19 nkat/mg protein; the “Specific activity (nkat/mg protein) 3′-O-glc” value is “— (Activity lower than 0.02 nkat/mg protein has been considered as trace activity and is not shown in the Table.)”; the “Specific activity (nkat/mg protein) 4′-O-glc” value was “— (Activity lower than 0.02 nkat/mg protein has been considered as trace activity and is not shown in the Table.)”; the “Specific activity (nkat/mg protein) 7-O-glc” value was “— (Activity lower than 0.02 nkat/mg protein has been considered as trace activity and is not shown in the Table.)”.

B2: UGT84B1: Arabidopsis recombinant glycosyltransferase (protein, UniProt O22182 1-456, looked up)
UDP-glycosyltransferase 84B1: MGSSEGQETHVLMVTLPFQGHINPMLKLAKHLSLSSKNLHINLATIESARDLLSTVEKPRYPVDLVFFSDGLPKEDPKAPETLLKSLNKVGAMNLSKIIEEKRYSCIISSPFTPWVPAVAASHNISCAILWIQACGAYSVYYRYYMKTNSFPDLEDLNQTVELPALPLLEVRDLPSFMLPSGGAHFYNLMAEFADCLRYVKWVLVNSFYELESEIIESMADLKPVIPIGPLVSPFLLGDGEEETLDGKNLDFCKSDDCCMEWLDKQARSSVVYISFGSMLETLENQVETIAKALKNRGLPFLWVIRPKEKAQNVAVLQEMVKEGQGVVLEWSPQEKILSHEAISCFVTHCGWNSTMETVVAGVPVVAYPSWTDQPIDARLLVDVFGIGVRMRNDSVDGELKVEEVERCIEAVTEGPAAVDIRRRAAELKRVARLALAPGGSSTRNLDLFISDITIA
For B2, the “Culture medium (μg/ml in supernatant) 7-O-glc” value in series [2] (setting [3]) turned out to be 4.83 µg/mL. Moreover, in series [1], the “Specific activity (nkat/mg protein) 3-O-glc” value is “— (Activity lower than 0.02 nkat/mg protein has been considered as trace activity and is not shown in the Table.)”; the “Specific activity (nkat/mg protein) 3′-O-glc” value was “— (Activity lower than 0.02 nkat/mg protein has been considered as trace activity and is not shown in the Table.)”; the “Specific activity (nkat/mg protein) 4′-O-glc” value was “— (Activity lower than 0.02 nkat/mg protein has been considered as trace activity and is not shown in the Table.)”; the “Specific activity (nkat/mg protein) 7-O-glc” value is on record as 0.14 nkat/mg protein.

B3: UGT71B1: Arabidopsis recombinant glycosyltransferase (protein, UniProt Q9LSY9 1-473, looked up)
UDP-glycosyltransferase 71B1: MKVELVFIPSPGVGHIRATTALAKLLVASDNRLSVTLIVIPSRVSDDASSSVYTNSEDRLRYILLPARDQTTDLVSYIDSQKPQVRAVVSKVAGDVSTRSDSRLAGIVVDMFCTSMIDIADEFNLSAYIFYTSNASYLGLQFHVQSLYDEKELDVSEFKDTEMKFDVPTLTQPFPAKCLPSVMLNKKWFPYVLGRARSFRATKGILVNSVADMEPQALSFFSGGNGNTNIPPVYAVGPIMDLESSGDEEKRKEILHWLKEQPTKSVVFLCFGSMGGFSEEQAREIAVALERSGHRFLWSLRRASPVGNKSNPPPGEFTNLEEILPKGFLDRTVEIGKIISWAPQVDVLNSPAIGAFVTHCGWNSILESLWFGVPMAAWPIYAEQQFNAFHMVDELGLAAEVKKEYRRDFLVEEPEIVTADEIERGIKCAMEQDSKMRKRVMEMKDKLHVALVDGGSSNCALKKFVQDVVDNVP
As to B3, in series [1], the “Specific activity (nkat/mg protein) 3-O-glc” value turned out to be 1.85 nkat/mg protein; the “Specific activity (nkat/mg protein) 3′-O-glc” value was “— (Activity lower than 0.02 nkat/mg protein has been considered as trace activity and is not shown in the Table.)”; the “Specific activity (nkat/mg protein) 4′-O-glc” value is “— (Activity lower than 0.02 nkat/mg protein has been considered as trace activity and is not shown in the Table.)”; the “Specific activity (nkat/mg protein) 7-O-glc” value is “— (Activity lower than 0.02 nkat/mg protein has been considered as trace activity and is not shown in the Table.)”.

B4: UGT74F1: Arabidopsis recombinant glycosyltransferase (protein, UniProt O22820 1-449, looked up)
Flavonol …: MEKMRGHVLAVPFPSQGHITPIRQFCKRLHSKGFKTTHTLTTFIFNTIHLDPSSPISIATISDGYDQGGFSSAGSVPEYLQNFKTFGSKTVADIIRKHQSTDNPITCIVYDSFMPWALDLAMDFGLAAAPFFTQSCAVNYINYLSYINNGSLTLPIKDLPLLELQDLPTFVTPTGSHLAYFEMVLQQFTNFDKADFVLVNSFHDLDLHEEELLSKVCPVLTIGPTVPSMYLDQQIKSDNDYDLNLFDLKEAALCTDWLDKRPEGSVVYIAFGSMAKLSSEQMEEIASAISNFSYLWVVRASEESKLPPGFLETVDKDKSLVLKWSPQLQVLSNKAIGCFMTHCGWNSTMEGLSLGVPMVAMPQWTDQPMNAKYIQDVWKVGVRVKAEKESGICKREEIEFSIKEVMEGEKSKEMKENAGKWRDLAVKSLSEGGSTDININEFVSKIQIK
As to B4, in series [2] (setting [3]), the “Culture medium (μg/ml in supernatant) 4′-O-glc” value turned out to be 0.19 µg/mL and the “Culture medium (μg/ml in supernatant) 7-O-glc” value stood at 0.53 µg/mL.

B5: UGT71C1: Arabidopsis recombinant glycosyltransferase (protein, UniProt O82381 1-481, looked up)
Flavonol …: MGKQEDAELVIIPFPFSGHILATIELAKRLISQDNPRIHTITILYWGLPFIPQADTIAFLRSLVKNEPRIRLVTLPEVQDPPPMELFVEFAESYILEYVKKMVPIIREALSTLLSSRDESGSVRVAGLVLDFFCVPMIDVGNEFNLPSYIFLTCSAGFLGMMKYLPERHREIKSEFNRSFNEELNLIPGYVNSVPTKVLPSGLFMKETYEPWVELAERFPEAKGILVNSYTALEPNGFKYFDRCPDNYPTIYPIGPILCSNDRPNLDSSERDRIITWLDDQPESSVVFLCFGSLKNLSATQINEIAQALEIVDCKFIWSFRTNPKEYASPYEALPHGFMDRVMDQGIVCGWAPQVEILAHKAVGGFVSHCGWNSILESLGFGVPIATWPMYAEQQLNAFTMVKELGLALEMRLDYVSEDGDIVKADEIAGTVRSLMDGVDVPKSKVKEIAEAGKEAVDGGSSFLAVKRFIGDLIDGVSISK
Consider B5, for which, in series [2] (setting [3]), the “Culture medium (μg/ml in supernatant) 3′-O-glc” value is 8.00 µg/mL, the “Culture medium (μg/ml in supernatant) 7,3′-di-O-glc” value was found to be 10.90 µg/mL and the “Culture medium (μg/ml in supernatant) 7-O-glc” value was determined as 2.12 µg/mL. The “aglycone converted to glucosides” value in series [2] (within 6 h, E. coli in 75 ml standard culture medium, no supplementary UDP-glucose) is reported as roughly 50%. Moreover, in series [1], the “di-O-glucoside formation from quercetin” value was “significant levels of di-O-glucosides”; the “Specific activity (nkat/mg protein) 3-O-glc” value is “— (Activity lower than 0.02 nkat/mg protein has been considered as trace activity and is not shown in the Table.)”; the “Specific activity (nkat/mg protein) 3′-O-glc” value amounted to 1.19 nkat/mg protein; the “Specific activity (nkat/mg protein) 4′-O-glc” value was “— (Activity lower than 0.02 nkat/mg protein has been considered as trace activity and is not shown in the Table.)”. The “Specific activity (nkat/mg protein) 7-O-glc” value in series [1] was 0.85 nkat/mg protein.

B6: UGT76E12: Arabidopsis recombinant glycosyltransferase (protein, UniProt Q94AB5 1-458, looked up)
Flavonol …: MQVLGMEEKPARRSVVLVPFPAQGHISPMMQLAKTLHLKGFSITVVQTKFNYFSPSDDFTHDFQFVTIPESLPESDFKNLGPIQFLFKLNKECKVSFKDCLGQLVLQQSNEISCVIYDEFMYFAEAAAKECKLPNIIFSTTSATAFACRSVFDKLYANNVQAPLKETKGQQEELVPEFYPLRYKDFPVSRFASLESIMEVYRNTVDKRTASSVIINTASCLESSSLSFLQQQQLQIPVYPIGPLHMVASAPTSLLEENKSCIEWLNKQKVNSVIYISMGSIALMEINEIMEVASGLAASNQHFLWVIRPGSIPGSEWIESMPEEFSKMVLDRGYIVKWAPQKEVLSHPAVGGFWSHCGWNSTLESIGQGVPMICRPFSGDQKVNARYLECVWKIGIQVEGELDRGVVERAVKRLMVDEEGEEMRKRAFSLKEQLRASVKSGGSSHNSLEEFVHFIRTL
Take B6: in series [2] (setting [3]), the “Culture medium (μg/ml in supernatant) 3,7-di-O-glc” value was 0.71 µg/mL and the “Culture medium (μg/ml in supernatant) 7-O-glc” value is 4.74 µg/mL. Further, in series [2] (E. coli, 2x YT medium, 0.1 mM IPTG, 0.1 mM quercetin, 24 h, no added UDP-glucose), the “Culture medium (μg/ml in supernatant) 3-O-glc” value came out at 1.41 µg/mL. In series [1], the “di-O-glucoside formation from quercetin” value was “significant levels of di-O-glucosides”; the “Specific activity (nkat/mg protein) 3-O-glc” value turned out to be 1.16 nkat/mg protein; the “Specific activity (nkat/mg protein) 3′-O-glc” value was “— (Activity lower than 0.02 nkat/mg protein has been considered as trace activity and is not shown in the Table.)”; the “Specific activity (nkat/mg protein) 4′-O-glc” value was “— (Activity lower than 0.02 nkat/mg protein has been considered as trace activity and is not shown in the Table.)”. The “Specific activity (nkat/mg protein) 7-O-glc” value in series [1] is reported as 1.35 nkat/mg protein.
